Results as given in patent US20210388087A1 (Chugai, published 2021).
Substitutions are numbered along the chain they refer to. Names may count otherwise.

T1: Human CD3eg linker (human)
T1 construct: Single chain: epsilon and gamma subunits of human CD3 joined by a 29-mer linker, Flag-tag at the C-terminus; also called recombinant human CD3
T1 chain: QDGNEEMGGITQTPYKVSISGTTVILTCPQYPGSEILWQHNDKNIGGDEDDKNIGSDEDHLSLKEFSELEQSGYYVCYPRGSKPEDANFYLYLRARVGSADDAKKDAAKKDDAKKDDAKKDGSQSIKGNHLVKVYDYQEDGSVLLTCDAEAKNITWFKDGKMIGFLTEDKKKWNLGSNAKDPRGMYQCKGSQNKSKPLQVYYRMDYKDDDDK

B1: H183/L072 VH K52bF (antibody, name in Kabat numbering, V domains shown)
VH: QVQLVESGGGLVQPGRSLRLSCAASGFTFSNAWMHWVRQAPGKGLEWVAQIKDFGNAYAAYYAPSVKGRFTISRDDSKNSIYLQMNSLKTEDTAVYYCHYVHYASASTVLPAFGVDAWGQGTTVTVSS
VL: DIVMTQSPLSLPVTPGEPASISCQASQELVHMNRNTYLHWYQQKPGQAPRLLIYKVSNRFPGVPDRFSGSGSGTDFTLKISRVEAEDVGVYYCAQGTSVPFTFGQGTKLEIK
B2: H183/L072 VH K64M (antibody, name in Kabat numbering, V domains shown)
VH: B1 VH with F54K, K67M
VL: B1 VL
B3: H183/L072 VH M34L (antibody, name in Kabat numbering, V domains shown)
VH: B1 VH with M34L, F54K
VL: B1 VL
B4: H183/L072 VH K52bS (antibody, name in Kabat numbering, V domains shown)
VH: B1 VH with F54S
VL: B1 VL
B5: H183/L072 VH M34K (antibody, name in Kabat numbering, V domains shown)
VH: B1 VH with M34K, F54K
VL: B1 VL
B6: H183/L072 VH K52bV (antibody, name in Kabat numbering, V domains shown)
VH: B1 VH with F54V
VL: B1 VL
B7: H183/L072 VH M34I (antibody, name in Kabat numbering, V domains shown)
VH: B1 VH with M34I, F54K
VL: B1 VL
B8: H183/L072 VH K52bW (antibody, name in Kabat numbering, V domains shown)
VH: B1 VH with F54W
VL: B1 VL
B9: H183/L072 VH K52bR (antibody, name in Kabat numbering, V domains shown)
VH: B1 VH with F54R
VL: B1 VL
B10: H183/L072 VH L100dP (antibody, name in Kabat numbering, V domains shown)
VH: B1 VH with F54K, L110P
VL: B1 VL
B11: H183/L072 VH M34D (antibody, name in Kabat numbering, V domains shown)
VH: B1 VH with M34D, F54K
VL: B1 VL
B12: H183/L072 VH K52bN (antibody, name in Kabat numbering, V domains shown)
VH: B1 VH with F54N
VL: B1 VL
B13: H183/L072 VH K52bH (antibody, name in Kabat numbering, V domains shown)
VH: B1 VH with F54H
VL: B1 VL
B14: H183/L072 VH L100dA (antibody, name in Kabat numbering, V domains shown)
VH: B1 VH with F54K, L110A
VL: B1 VL
B15: H183/L072 VH K64P (antibody, name in Kabat numbering, V domains shown)
VH: B1 VH with F54K, K67P
VL: B1 VL
B16: H183/L072 VH K64L (antibody, name in Kabat numbering, V domains shown)
VH: B1 VH with F54K, K67L
VL: B1 VL
B17: H183/L072 VH K52bG (antibody, name in Kabat numbering, V domains shown)
VH: B1 VH with F54G
VL: B1 VL
B18: H183/L072 VH K52bM (antibody, name in Kabat numbering, V domains shown)
VH: B1 VH with F54M
VL: B1 VL
B19: H183/L072 VH M34E (antibody, name in Kabat numbering, V domains shown)
VH: B1 VH with M34E, F54K
VL: B1 VL
B20: H183/L072 VH K52bT (antibody, name in Kabat numbering, V domains shown)
VH: B1 VH with F54T
VL: B1 VL
B21: H183/L072 VH K64I (antibody, name in Kabat numbering, V domains shown)
VH: B1 VH with F54K, K67I
VL: B1 VL
B22: H183/L072 VH M34G (antibody, name in Kabat numbering, V domains shown)
VH: B1 VH with M34G, F54K
VL: B1 VL
B23: H183/L072 VH K64A (antibody, name in Kabat numbering, V domains shown)
VH: B1 VH with F54K, K67A
VL: B1 VL
B24: H183/L072 VH M34F (antibody, name in Kabat numbering, V domains shown)
VH: B1 VH with M34F, F54K
VL: B1 VL
B25: H183/L072 VH K52bL (antibody, name in Kabat numbering, V domains shown)
VH: B1 VH with F54L
VL: B1 VL
B26: H183/L072 VH M34A (antibody, name in Kabat numbering, V domains shown)
VH: B1 VH with M34A, F54K
VL: B1 VL
B27: H183/L072 VH M34H (antibody, name in Kabat numbering, V domains shown)
VH: B1 VH with M34H, F54K
VL: B1 VL
B28: H183/L072 VH L100dM (antibody, name in Kabat numbering, V domains shown)
VH: B1 VH with F54K, L110M
VL: B1 VL
B29: H183/L072 VH K52bI (antibody, name in Kabat numbering, V domains shown)
VH: B1 VH with F54I
VL: B1 VL
B30: H183/L072 VH K52bQ (antibody, name in Kabat numbering, V domains shown)
VH: B1 VH with F54Q
VL: B1 VL
B31: H183/L072 VH L100dI (antibody, name in Kabat numbering, V domains shown)
VH: B1 VH with F54K, L110I
VL: B1 VL
B32: H183/L072 VH K52bP (antibody, name in Kabat numbering, V domains shown)
VH: B1 VH with F54P
VL: B1 VL
B33: H183/L072 VH K52bY (antibody, name in Kabat numbering, V domains shown)
VH: B1 VH with F54Y
VL: B1 VL

Target: T1, Human CD3eg linker
Assay: Biacore SPR, vs template H183/L072

Going from B1 to B2, the “fold change of affinity” value rises from 0.4 fold to 1.1 fold.

B3 and B4 are the same in “fold change of affinity” value: 0.7 fold for the first, 0.7 fold for the second.

First: B5
Second: B6
The “fold change of affinity” value of the first is lower: 0 fold for the first, 0.6 fold for the second.

B7 and B8 are the same in “fold change of affinity” value: 0.6 fold for the first, 0.6 fold for the second.

First: B9
Second: B10
The “fold change of affinity” value of the first is lower: 1.2 fold for the first, 1.4 fold for the second.

Compared with B11, B12 is higher in “fold change of affinity” value: 0 fold for the first, 0.5 fold for the second.

Going from B13 to B14, the “fold change of affinity” value rises from 0.7 fold to 1.2 fold.

First: B15
Second: B16
The “fold change of affinity” value of the first is higher: 1.6 fold for the first, 1.1 fold for the second.

Compared with B17, B18 is lower in “fold change of affinity” value: 0.8 fold for the first, 0.5 fold for the second.

First: B19
Second: B20
The “fold change of affinity” value of the first is lower: 0 fold for the first, 0.3 fold for the second.

Going from B21 to B22, the “fold change of affinity” value falls from 1 fold to 0 fold.

First: B23
Second: B24
The “fold change of affinity” value of the first is higher: 1 fold for the first, 0.1 fold for the second.

Compared with B25, B26 is lower in “fold change of affinity” value: 0.6 fold for the first, 0 fold for the second.

Going from B27 to B28, the “fold change of affinity” value rises from 0 fold to 1 fold.

First: B29
Second: B30
The “fold change of affinity” value of the first is higher: 0.8 fold for the first, 0.7 fold for the second.

Compared with B31, B32 is lower in “fold change of affinity” value: 1.2 fold for the first, 0.5 fold for the second.

For B33, the “fold change of affinity” value was 0.7 fold.
